In patent CN115232213A (HEFEI TIANGANG IMMUNOLOGY PHARMACEUTICAL CO LTD, dated 2022):

Target: T1, TROP2蛋白 (TROP2 protein, SEQ ID NO:27) expressed on transduced cells (human, UniProt P09758 27-323)
T1 construct: also called CHO-K1-TROP2细胞; A375-TROP2细胞
T1 sequence: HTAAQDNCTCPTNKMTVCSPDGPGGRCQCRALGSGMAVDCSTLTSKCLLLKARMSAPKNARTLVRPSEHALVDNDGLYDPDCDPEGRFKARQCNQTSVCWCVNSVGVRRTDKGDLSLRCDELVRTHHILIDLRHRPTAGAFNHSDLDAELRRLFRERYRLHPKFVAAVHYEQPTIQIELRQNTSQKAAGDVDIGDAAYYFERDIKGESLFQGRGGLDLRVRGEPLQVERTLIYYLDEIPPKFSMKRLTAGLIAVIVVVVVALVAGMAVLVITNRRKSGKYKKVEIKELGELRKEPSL
Experiment: flow cytometry on CHO-K1-TROP2 cells, Alexa-647 rat anti-human Fc detection

B1: CD3×TROP2双特异性抗体 (CD3×TROP2 bispecific antibody) (bispecific antibody, human IgG1, kappa, L234A L235A)
chain: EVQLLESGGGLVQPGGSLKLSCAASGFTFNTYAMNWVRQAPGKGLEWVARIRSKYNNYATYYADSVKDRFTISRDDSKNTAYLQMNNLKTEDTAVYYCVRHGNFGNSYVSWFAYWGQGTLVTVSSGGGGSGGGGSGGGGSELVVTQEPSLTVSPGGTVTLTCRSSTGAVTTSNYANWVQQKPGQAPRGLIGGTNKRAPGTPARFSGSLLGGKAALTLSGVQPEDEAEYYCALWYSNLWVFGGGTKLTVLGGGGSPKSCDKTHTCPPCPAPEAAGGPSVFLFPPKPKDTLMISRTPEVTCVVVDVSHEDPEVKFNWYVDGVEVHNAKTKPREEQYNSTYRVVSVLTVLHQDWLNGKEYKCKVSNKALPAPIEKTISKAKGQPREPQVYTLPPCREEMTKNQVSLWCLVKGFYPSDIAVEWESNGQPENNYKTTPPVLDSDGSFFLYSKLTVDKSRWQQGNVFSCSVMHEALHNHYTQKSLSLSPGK
heavy: QVQLQQSGSELKKPGASVKVSCKASGYTFTNYGMNWVKQAPGQGLKWMGWINTYTGEPTYTDDFKGRFAFSLDTSVSTAYLQISSLKADDTAVYFCARGGFGSSYWYFDVWGQGSLVTVSSASTKGPSVFPLAPSSKSTSGGTAALGCLVKDYFPEPVTVSWNSGALTSGVHTFPAVLQSSGLYSLSSVVTVPSSSLGTQTYICNVNHKPSNTKVDKKVEPKSCDKTHTCPPCPAPEAAGGPSVFLFPPKPKDTLMISRTPEVTCVVVDVSHEDPEVKFNWYVDGVEVHNAKTKPREEQYNSTYRVVSVLTVLHQDWLNGKEYKCKVSNKALPAPIEKTISKAKGQPREPQVCTLPPSREEMTKNQVSLSCAVKGFYPSDIAVEWESNGQPENNYKTTPPVLDSDGSFFLVSKLTVDKSRWQQGNVFSCSVMHEALHNHYTQKSLSLSPGK
light: DIQLTQSPSSLSASVGDRVSITCKASQDVSIAVAWYQQKPGKAPKLLIYSASYRYTGVPDRFSGSGSGTDFTLTISSLQPEDFAVYYCQQHYITPLTFGAGTKVEIKRTVAAPSVFIFPPSDEQLKSGTASVVCLLNNFYPREAKVQWKVDNALQSGNSQESVTEQDSKDSTYSLSSTLTLSKADYEKHKVYACEVTHQGLSSPVTKSFNRGEC
notes: Fc carries L234A/L235A; also called CD3×TROP2重组双特异抗体; CD3×TROP2抗体
  binding result: binds
